Reference: paper PMC3137622, “Mechanisms of Allergen-Antibody Interaction of Cockroach Allergen Bla g 2 with Monoclonal Antibodies That Inhibit IgE Antibody Binding” (PLoS ONE, 2011)

B1: monoclonal antibody 7C11 (anti-Bla g 2) (antibody, V domains shown)
VH: EIQLQQSGAELVKPGASVKLSCTASGFNIKDTYIHWVKQRPEQGLEWIGRIDPANGNTRYGPKFLGKATITADTSSNTAYLHLNSLTSEDTAVYFCARWVRQMDYWGQGTSVTVSS
VL: DIVMTQSHKFMSTSVGDRVSITCKASQIVSTAVAWYQQKPGQSPKLLIYSASYRYTGVPDRFTGSGSGTDFTFTISSVQAEDLAVYYCQQHYNSPQTFGGGTKLEIK
notes: the Fab' of mAb 7C11 stands in PDB 2nr6 (complex with Bla g 2), heavy chain; the Fab' of mAb 7C11 stands in PDB 2nr6 (complex with Bla g 2), light chain; Whole mAb in the assays; the PDB entry holds only the Fab' fragment; also called mAb 7C11; biotinylated mAb 7C11
B2: monoclonal antibody 4C3 (anti-Bla g 2) (antibody, V domains shown)
VH: EVQLVESGGGLVQPGGSLKLSCAASGFTFSSFAMSWGRQTPDKRLELVATINSNGASTYYPDTVKGRFTISRDNAKNTLFLQMSSLKSEDTAMYYCTRDPAGRAWFAYWGQGTLVTVSA
VL: QIVLTQSPSSMYASLGERVTITCKASQDINNYLSWFQQKPGKSPKTLIYRADRLVDGVPSRVSGSGSGQDYSLTISSLEYEDLGIYYCLQYDELPYTFGGGTKLEIK
notes: the Fab of mAb 4C3 stands in PDB 3liz (complex with Bla g 2), heavy chain; the Fab of mAb 4C3 stands in PDB 3liz (complex with Bla g 2), light chain; Whole mAb in the assays; the PDB entry holds only the Fab fragment; also called mAb 4C3; biotinylated mAb 4C3

Molecular target: T1, natural Bla g 2 (Blattella germanica, UniProt P54958)
T1 construct: Glycosylated natural allergen; also called nBla g 2; natural allergen
Experiment: ELISA; two-site dose-response: mAb 7C11 or 4C3 as capture antibody, allergen titrated, detection with biotinylated mAb 4C3 (21 nM) or 7C11 (4 nM), respectively, or polyclonal antibody (53 nM)
Conditions: both partners purified

T1 sequence (P54958 whole entry, looked up): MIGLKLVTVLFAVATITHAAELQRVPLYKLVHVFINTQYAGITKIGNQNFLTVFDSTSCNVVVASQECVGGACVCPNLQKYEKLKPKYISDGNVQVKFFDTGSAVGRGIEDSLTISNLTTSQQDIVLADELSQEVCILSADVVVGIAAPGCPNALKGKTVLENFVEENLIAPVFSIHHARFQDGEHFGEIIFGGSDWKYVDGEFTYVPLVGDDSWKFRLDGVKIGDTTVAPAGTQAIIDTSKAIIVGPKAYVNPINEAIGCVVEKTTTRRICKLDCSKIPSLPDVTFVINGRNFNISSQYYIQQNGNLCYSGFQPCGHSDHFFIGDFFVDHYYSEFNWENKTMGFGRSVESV

binding result	Binder
binds	B1
binds	B2
